According to the supplement of paper PMC10724198:
± gives the standard deviation of the averaged measurements.
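Note: PSI is a weighted mean of sequencing reads over stability bins, variants kept only with over 10 reads, mCherry proximal and sfGFP distal, peptide attached via GGGS linker.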

Each sequence was assayed on Saccharomyces cerevisiae (assay: protein stability index of tFT-peptide fusion (C-terminal peptide) (PSI (0-1 scale)); higher = more stable (slower turnover)). Conditions: genetic background: wild type; temperature: 30 C.
Method: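 Multiplexed protein stability (MPS) profiling in S. cerevisiae. Random 12-aa peptides (tFT-X12 library) are fused to the C-terminus of a sfGFP-mCherry tandem fluorescent timer, after mCherry and a GGGS linker. Cells are FACS-sorted into 8 mCherry/sfGFP bins and deep-sequenced. The protein stability index (PSI) is the read-weighted bin average, scaled from 0 (unstable) to 1 (stable). Only peptides with >10 reads are reported; cells were grown at 30 °C in SC-His with glucose.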
AAAPWSVSGCPG was tested, and the protein stability index was 0.6611 ± 0.0049. For AACLCATYPVGT, the protein stability index was 0.752 ± 0.07. Work on AAGTVFCRITWD yielded a protein stability index of 0.678 ± 0.022. AAIFDSIRKDLR gave a protein stability index of 0.69 ± 0.039. AAISGELRVWVL was tested, and the protein stability index was 0.642 ± 0.0081. AAKQIPRYRTTG was tested, and the protein stability index was 0.716 ± 0.078. AALRLVEDKSTW showed a protein stability index of 0.71 ± 0.059. For AAPAGAAKRWGT, the protein stability index was 0.641 ± 0.035. For AAPRGRGRFAAA, the protein stability index was 0.699 ± 0.024. AARFRAVPVFGN showed a protein stability index of 0.661 ± 0.037. AARPLGLPSASG was tested, and the protein stability index was 0.7113 ± 0.0062. With AARQRWSLEFLD the protein stability index was 0.65 ± 0.1. In the case of AASPPPRISAWL, the protein stability index is reported as 0.746 ± 0.02. AATDWFHLPFPP showed a protein stability index of 0.682 ± 0.15. For ACLCLPGVRVGG, the protein stability index was 0.625 ± 0.038. ACPDARNAGTQR showed a protein stability index of 0.708 ± 0.022. With ACSPPPLLPPPL the protein stability index was 0.737 ± 0.016. ACSSSLPPSSPP was tested, and the protein stability index was 0.671 ± 0.0078. With ACVPGGFVWGGV the protein stability index was 0.754 ± 0.065. For ACYEYRPSPASC, the protein stability index was 0.728 ± 0.053. In the case of ADENFKVRKRRS, the protein stability index is reported as 0.703 ± 0.057. ADQVGRAVIIAS gave a protein stability index of 0.644 ± 0.0074. ADRVHLNGLEML was tested, and the protein stability index was 0.747 ± 0.0093. For AEEWPVRAGGRG, the protein stability index was 0.609 ± 0.056. AEGCHIRVHWGV was tested, and the protein stability index was 0.7265 ± 0.0066. With AEGYRGECSGCM the protein stability index was 0.622 ± 0.052. AEVRGTVGRLVG gave a protein stability index of 0.632 ± 0.011. AFAFSVLTGWGV was tested, and the protein stability index was 0.638 ± 0.072. For AFGAPVVRHATF, the protein stability index was 0.723 ± 0.02. Sequence AFGFCKVLSSGC has a protein stability index of 0.68 ± 0.013. AFLVGYSGVGYV gave a protein stability index of 0.687 ± 0.032. AFPLPPPPPPKP gave a protein stability index of 0.708 ± 0.012. For AFPPDVPPLTPL, the protein stability index was 0.72 ± 0.1. AFRGFLSVNFNL gave a protein stability index of 0.7338 ± 0.005. In the case of AFSYRAVIALLP, the protein stability index is reported as 0.683 ± 0.018. For AFVLGSWSWWRA, the protein stability index was 0.715 ± 0.015. Sequence AGAGEHCDGVVG has a protein stability index of 0.641 ± 0.0096. AGAGGGGWWGGV was tested, and the protein stability index was 0.76 ± 0.054. For AGAGGGQGKGRE, the protein stability index was 0.639 ± 0.019. In the case of AGALYGNPCPPL, the protein stability index is reported as 0.657 ± 0.019. In the case of AGARLEWVVAGR, the protein stability index is reported as 0.7539 ± 0.0045. AGCRFRWHTVDC was tested, and the protein stability index was 0.648 ± 0.073. In the case of AGGAGWGLVLGC, the protein stability index is reported as 0.647 ± 0.082. For AGGGGGDAGRGV, the protein stability index was 0.744 ± 0.078. With AGGGRRRLDGGR the protein stability index was 0.703 ± 0.0086. In the case of AGGRGGGLGLWC, the protein stability index is reported as 0.724 ± 0.1. Sequence AGIDYLSVGGSL has a protein stability index of 0.728 ± 0.074. For AGLDRFLVIWGI, the protein stability index was 0.6106 ± 0.0061. With AGLLGVVGGRFG the protein stability index was 0.6993 ± 0.00076. Work on AGLRMALGVGIP yielded a protein stability index of 0.6975 ± 0.0065. Work on AGRGGTGIGERV yielded a protein stability index of 0.63 ± 0.072. Sequence AGRTGVLGGHVP has a protein stability index of 0.691 ± 0.0095. Sequence AGRVGRRGPPNR has a protein stability index of 0.629 ± 0.038. For AGSLPLLYPSLR, the protein stability index was 0.745 ± 0.015. AGSSGGGAWWGE was tested, and the protein stability index was 0.681 ± 0.12. AGSSLVVAWHGV was tested, and the protein stability index was 0.673 ± 0.028. AGTALVFNGSKA showed a protein stability index of 0.7209 ± 0.0045. Sequence AGVVARTRRDGG has a protein stability index of 0.708 ± 0.035. Sequence AGVVGRMGWGAT has a protein stability index of 0.707 ± 0.041. In the case of AHEAHPITPRGP, the protein stability index is reported as 0.695 ± 0.042. AHFQDSTSPATI was tested, and the protein stability index was 0.722 ± 0.017. With AHGASGNRSHNQ the protein stability index was 0.644 ± 0.037. For AHPPPPPPPPAP, the protein stability index was 0.677 ± 0.14. AHPPPSPPFPRH was tested, and the protein stability index was 0.658 ± 0.015. AHQEAIIPTIGK gave a protein stability index of 0.694 ± 0.087. Sequence AHVYGCGGGGMT has a protein stability index of 0.734 ± 0.055. AHWYPAGQCSRL showed a protein stability index of 0.804 ± 0.13. With AICSVRSGITLS the protein stability index was 0.6529 ± 0.0019. AIGPLTCFFAFL was tested, and the protein stability index was 0.695 ± 0.079. Work on AIILGPPIGWTK yielded a protein stability index of 0.757 ± 0.026. In the case of AILGYFSLVEPP, the protein stability index is reported as 0.542 ± 0.013. AIPRPPRVWGHL was tested, and the protein stability index was 0.727 ± 0.016. AISVISNLTKLE gave a protein stability index of 0.617 ± 0.034. AIVASAPSLGRS was tested, and the protein stability index was 0.658 ± 0.038. AKDSSPTFTSPH gave a protein stability index of 0.673 ± 0.032. AKDSTAVVRLGT gave a protein stability index of 0.703 ± 0.029. Work on AKKTKSRANSDL yielded a protein stability index of 0.701 ± 0.085. In the case of AKRKEAGKPHAN, the protein stability index is reported as 0.695 ± 0.085. For AKRQRQQKKDKG, the protein stability index was 0.626 ± 0.014. In the case of AKSSLGSSYKTL, the protein stability index is reported as 0.761 ± 0.064. AKYPLTRCLFGS gave a protein stability index of 0.705 ± 0.033. With ALASPPPTPSLV the protein stability index was 0.638 ± 0.0068. Work on ALEFRDASLPVQ yielded a protein stability index of 0.682 ± 0.068. For ALFVVLSGLSLR, the protein stability index was 0.616 ± 0.017. For ALGGKDQSRSSS, the protein stability index was 0.699 ± 0.019. ALLGGQLVWNSK was tested, and the protein stability index was 0.667 ± 0.14. ALLLPFPPPPPP showed a protein stability index of 0.559 ± 0.03. Sequence ALLLSHFLFFYA has a protein stability index of 0.524 ± 0.028. With ALLSRFFPAFFF the protein stability index was 0.604 ± 0.021. For ALPLPAPSSIPS, the protein stability index was 0.712 ± 0.029. ALPNPLLPPAPP showed a protein stability index of 0.612 ± 0.026. Work on ALPPGSRPLIPS yielded a protein stability index of 0.628 ± 0.024. Sequence ALPRFPATSFPT has a protein stability index of 0.695 ± 0.04. ALPRPPSPFSPL gave a protein stability index of 0.666 ± 0.078. Work on ALRGRTTPPSHT yielded a protein stability index of 0.726 ± 0.086. In the case of ALSEAITLPVNP, the protein stability index is reported as 0.674 ± 0.085. With ALVPPDPTPPPP the protein stability index was 0.699 ± 0.047. Sequence ALVQAAPPGRTP has a protein stability index of 0.6864 ± 0.0049. ALVTLRRVVDLV gave a protein stability index of 0.601 ± 0.08. In the case of AMGILSHLTACW, the protein stability index is reported as 0.659 ± 0.048. In the case of ANKIRMKYMRTG, the protein stability index is reported as 0.6139 ± 0.0027. ANKKKKKIKTKH showed a protein stability index of 0.757 ± 0.12. Sequence ANSRPASSTRLR has a protein stability index of 0.857 ± 0.2. With APAWSFFGLDKS the protein stability index was 0.702 ± 0.015. In the case of APEGGEAQVLPA, the protein stability index is reported as 0.6842 ± 0.0022. Work on APFAPRRPLPPP yielded a protein stability index of 0.612 ± 0.094. In the case of APFRHKANEPGE, the protein stability index is reported as 0.706 ± 0.037. In the case of APIQPGEDKLKR, the protein stability index is reported as 0.64 ± 0.0099. Work on APIQPRAPPRAP yielded a protein stability index of 0.669 ± 0.017. With APIRRPTCLSEV the protein stability index was 0.708 ± 0.043. With APIWRSLRGLAI the protein stability index was 0.555 ± 0.18. In the case of APLTVLTARSLF, the protein stability index is reported as 0.763 ± 0.055. APNPPPPPPPLP showed a protein stability index of 0.729 ± 0.03. In the case of APPFNPSRLSRP, the protein stability index is reported as 0.725 ± 0.066. APPPLPPPTLPT was tested, and the protein stability index was 0.757 ± 0.041. APPPNPPRPSSR showed a protein stability index of 0.754 ± 0.032. Work on APPPPAVPHYRP yielded a protein stability index of 0.667 ± 0.012. Sequence APPPPHPRTPKP has a protein stability index of 0.693 ± 0.069. APPPPPFPPPCA showed a protein stability index of 0.694 ± 0.049. APPPPPPAPPLP was tested, and the protein stability index was 0.591 ± 0.028. APPPPPPFPPLP gave a protein stability index of 0.684 ± 0.093. For APPPPPRISAWL, the protein stability index was 0.745 ± 0.012. Work on APPPPPVHPSSP yielded a protein stability index of 0.734 ± 0.011. APPPPTPPPPPA showed a protein stability index of 0.7 ± 0.019. In the case of APPSPTSPPTPP, the protein stability index is reported as 0.642 ± 0.1. Work on APRKTPPHPPPS yielded a protein stability index of 0.689 ± 0.06. APRPSNRRPRPR was tested, and the protein stability index was 0.629 ± 0.025. In the case of APRRSPGWGPEG, the protein stability index is reported as 0.731 ± 0.083. APSEPVIYLPRV showed a protein stability index of 0.746 ± 0.14. With APSINVQVYWSG the protein stability index was 0.649 ± 0.041. APSPPFLPLTLT was tested, and the protein stability index was 0.656 ± 0.035. APSPPTRYLPLF showed a protein stability index of 0.684 ± 0.019. In the case of APSSPPPPTLPP, the protein stability index is reported as 0.716 ± 0.17. APVGYNTVASAC gave a protein stability index of 0.685 ± 0.042. APVVSFTAPLAF was tested, and the protein stability index was 0.619 ± 0.1. In the case of AQERDGAIKKTH, the protein stability index is reported as 0.7 ± 0.033. With AQLPRSFAPPLR the protein stability index was 0.868 ± 0.19. Sequence AQRRHGRSIRRD has a protein stability index of 0.787 ± 0.019. With AQSYPHPPPPPP the protein stability index was 0.644 ± 0.041. ARACPLCFVMMF showed a protein stability index of 0.559 ± 0.013. In the case of ARCGNSAPWHVG, the protein stability index is reported as 0.693 ± 0.019. Sequence ARFYPPLPTDSL has a protein stability index of 0.708 ± 0.056. Work on ARGAPVSGRAGG yielded a protein stability index of 0.6574 ± 0.005. ARGDDGSTCSRG gave a protein stability index of 0.697 ± 0.059. In the case of ARGGGPERIHPE, the protein stability index is reported as 0.66362 ± 0.00048. ARGIVAHKVTQP showed a protein stability index of 0.65 ± 0.11.
